{"source": "patent US20020157120A1", "about": "(University of California, published 2002)", "proteins": {"B1": {"name": "Discosoma red fluorescent protein, dsRed (other)", "chain": "MRSSKNVIKEFMRFKVRMEGTVNGHEFEIEGEGEGRPYEGHNTVKLKVTKGGPLPFAWDILSPQFQYGSKVYVKHPADIPDYKKLSFPEGFKWERVMNFEDGGVVTVTQDSSLQDGCFIYKVKFIGVNFPSDGPVMQKKTMGWEASTERLYPRDGVLKGEIHKALKLKDGGHYLVEFKSIYMAKKPVQLPGYYYVDSKLDITSHNEDYTIVEQYERTEGRHHLFL", "notes": "Wild-type dsRed (CLONTECH DNA) cloned into pRSETB, made in JM109(DE3) E. coli and purified on NiNTA-agarose; The entries describe self-association of dsRed subunits; also called red fluorescent protein (dsRed) from coral; not shown: N-terminal tag from vector pRSETB (protein purified by nickel chelate chromatography)"}}, "target": "the molecule itself", "assay": "Self-association (oligomer dissociation), inferred from FCS translational diffusion at about 1 nM dsRed", "text": "Fluorescence was collected through the same objective, a dichroic mirror, and 525+/−50 nm (citrine) or 580+/−50 nm (dsRed) filters and focused by a 150-mm achromat into an optical fiber ([…]). The fluorescence signal was detected by a fiber-coupled avalanche photodiode (APD; SPCM-AQ-141-FC; EG & G, Salem, Mass.). The APD signal was processed by using a correlator card (ALV5000; ALV Laser, Germany), and correlation curves were fitted by using the following function (Schwille et al., supra, 2000):\nWithin experimental uncertainty, our estimated rotational time (i.e., protein volume) agrees with the tetramer hypothesis of dsRed configuration.", "data": [{"protein": "B1", "values": [{"measurement": "Kd", "value": "≤ 1", "unit": "nM"}]}]}
